Reference: publication PMC5096685, “Characterization of CgHIFα-Like, a Novel bHLH-PAS Transcription Factor Family Member, and Its Role under Hypoxia Stress in the Pacific Oyster Crassostrea gigas”

Assays:
[1] = molecular target: T1, CgHIFα-like bHLH-PAS (CgHIFαlike-His) (Crassostrea gigas, UniProt A0A167QPK5 1-385); assay: EMSA; no ARNT added; 1 ug protein, 20 fmol probe, 50 ng poly(dI-dC); unlabeled Ew 200x competes; anti-His supershift; 10 mM Tris pH 7.5, 50 mM KCl, 1 mM DTT, 50 ng poly(dI-dC) in 20 uL, 20 min at room temperature; conditions: protein: recombinant; tags: His (pET30a); label: biotin end label (probe)
T1 sequence: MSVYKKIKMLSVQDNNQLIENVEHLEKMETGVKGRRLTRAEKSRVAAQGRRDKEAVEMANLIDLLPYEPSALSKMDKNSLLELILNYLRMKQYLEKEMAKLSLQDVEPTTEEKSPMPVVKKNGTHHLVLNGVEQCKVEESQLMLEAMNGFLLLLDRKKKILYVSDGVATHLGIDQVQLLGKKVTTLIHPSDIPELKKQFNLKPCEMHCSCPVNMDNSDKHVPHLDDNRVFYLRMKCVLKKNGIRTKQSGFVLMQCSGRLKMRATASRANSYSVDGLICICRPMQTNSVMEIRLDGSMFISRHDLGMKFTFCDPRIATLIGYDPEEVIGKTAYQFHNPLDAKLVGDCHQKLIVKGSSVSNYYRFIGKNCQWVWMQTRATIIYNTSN

CgHIFα bHLH-PAS = molecular target: T2, CgHIFα bHLH-PAS (Crassostrea gigas, UniProt B6ZGN4 1-356); assay: EMSA; no ARNT added; positive control; unlabeled Ew 200x competes; anti-His supershift; 10 mM Tris pH 7.5, 50 mM KCl, 1 mM DTT, 50 ng poly(dI-dC) in 20 uL, 20 min at room temperature; conditions: protein: recombinant; tags: His (pET30a); label: biotin end label (probe)
T2 sequence: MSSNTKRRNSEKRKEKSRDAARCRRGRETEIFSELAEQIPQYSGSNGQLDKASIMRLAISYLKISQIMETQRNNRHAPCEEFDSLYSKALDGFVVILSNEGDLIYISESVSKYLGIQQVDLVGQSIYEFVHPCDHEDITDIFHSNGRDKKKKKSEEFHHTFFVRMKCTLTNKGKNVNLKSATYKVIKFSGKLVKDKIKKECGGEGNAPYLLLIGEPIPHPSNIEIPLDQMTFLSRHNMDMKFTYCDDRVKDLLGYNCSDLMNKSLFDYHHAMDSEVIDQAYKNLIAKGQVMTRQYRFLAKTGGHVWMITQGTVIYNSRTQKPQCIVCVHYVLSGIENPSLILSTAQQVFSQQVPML

B1: Ew (human EPO HRE probe) (dsDNA)
DNA 1: GCCCTACGTGCTGTCTCA
DNA 2: TGAGACAGCACGTAGGGC
B1: binds [1]; binds (CgHIFα bHLH-PAS).
